Reference: patent publication US11702666B2, “Cell-based assay for determining activity in the retinoblastoma pathway” (Medical Diagnostic Laboratories, LLC, priority 2017, dated 2023)
“Also recorded” adds a separate entry of the source.

Key:
[1] = tested on: Rb/E2F1-Dp-1 complex; assay: CDK6 mutant activity / drug resistance in NanoBiT assay, stable cell line #11; assay type: cell-based, human; conditions: for Luc. activity (/wt): relative to WT
Protocol: (§1) A linear expression cassette of mutated CDK4 or CDK6 was generated by PCR mediated overlapping extension method. A pair of forward and reverse primers containing the targeted mutations was designed. The mutated codon was located in the middle of a primer flanked by 18-21 nucleotides on each side. Two PCRs (named as PCR #1 and PCR #2 in FIG. 1) were performed using UF-CMV forward and mutated reverse primers, or mutated forward and BGH-UR primers. The PCR products were cleaned up by ExoSAP-IT® (Affymetrix) to remove unconsumed dNTPs and primers. The treated PCR products were mixed together followed by dilution with water. A second round of PCR was performed using the diluted PCR mixture, and the UF and UR primers (FIG. 1). The amplified products were gel-purified. The DNA concentration was quantitated by the optical density at 260 nm using Nanodrop. The targeted mutations were incorporated in the CDK4 or CDK6 genes during the PCR mediated overlapping extension method. The introduced mutations were confirmed by the DNA sequencing.
(§2) To examine the ability of the assay to detect variants in CDK4 or CDK6 that affect function, kinase dead mutants and COSMIC (Catalogue Of Somatic Mutations in cancer) unknown mutants were created. For comparison, hyperactive CDK4 or CDK6 mutants known to be hyperactive due to less binding to natural inhibitor p16 were also created. The mutations in CDK4 or CDK6 were created by site-directed mutagenesis. WT or mutated CDK4 or CDK6 along with the CyclinD1 and SB-Rb were co-transfected, under similar conditions as previously indicated (see FIG. 9).
(§3) Computer modeling was used to reveal the drug-binding pocket and predict drug-resistant mutants. The mutations in CDK4 and CDK6 were created by site-directed mutagenesis. WT or mutated CDK4 or CDK6 along with the CyclinD1 and SB-Rb was co-transfected into #11 cell line, under the same conditions as previously indicated. […] Dose response curves are presented on FIG. 13A and FIG. 13B. Activity of other mutants was very similar to the WT or KD.
(§4) CDK4 and CDK6 mutants with known function and unknown function taken from the COSMIC database were analyzed in the present assay and are summarized in Table 7A and Table 7B. The mutants were classified according to their activity. Table 7A and Table 7B also show the number of counts per mutant in the COSMIC database, type of cancer, and luciferase activity compared to the WT (being 100%).

[2] = biological target: T1, CDK4 (Homo sapiens, UniProt P11802); assay: p16 activity assay with CDK4 (NanoBiT, cell line #11); assay type: cell-based; conditions: for signal of p16 mutant (in words): loss of function mutants; for Observed function: p16 (CDKN2A) mutants, with CDK4
T1 construct: expressed in transfected cells; host or cells: HEK293 CDK4/CDK6 double-knockout cells stably expressing E2F1-Dp-1-LB (clone #11); early experiments in plain HEK293
T1 sequence (P11802 2-303): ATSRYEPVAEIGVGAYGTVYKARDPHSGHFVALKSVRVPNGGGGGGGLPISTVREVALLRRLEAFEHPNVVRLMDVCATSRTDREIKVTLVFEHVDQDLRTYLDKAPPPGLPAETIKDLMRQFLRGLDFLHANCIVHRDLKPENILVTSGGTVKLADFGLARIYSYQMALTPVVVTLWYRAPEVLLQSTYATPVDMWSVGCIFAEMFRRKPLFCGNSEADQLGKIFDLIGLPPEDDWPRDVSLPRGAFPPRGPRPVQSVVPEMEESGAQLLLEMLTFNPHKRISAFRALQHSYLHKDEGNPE
Source text: We developed an assay that could measure the interaction between Rb, E2F1 and Dp-1. When the Rb and E2F1 proteins are in close proximity or in complex, a light signal is observed. For the purpose of the assay, split-luciferase complementation was used to measure the interaction between Rb and E2F1, which served as a surrogate measure of CDK4/6 activity and the ability of CDK4/6 to respond to the natural inhibitor p16. The NanoBiT assay system by Promega (Madison, Wis.; Dixon et al., 2015, ACS ChemBiol) was used in the split luciferase complementation design. FIG. 24 depicts a design of a signal system to measure p16 activity. Under basal conditions inside the cell, Rb is active and interacts with the E2F1/Dp-1 heterodimer. However, in the presence of the CDK4 or CDK6, Rb gets phosphorylated and released from the interacting complex. In the presence of the natural inhibitor p16, CDK4/6 is no longer available to phosphorylate Rb and thus promoting the Rb/E2F1-Dp-1 complex formation.
For the purpose of the current assay, the stable cell line #11 that we generated for the CDK activity assay was used and described above. HEK293 CDK DKO cells containing E2F1-Dp-1-LB was transiently transfected with CDK4/CDK6, CyclinD1, and SB-Rb. The transfected cells were then exposed to the natural inhibitor p16 (FIG. 25). When CDK4 or CDK6 is present, a decrease in activity was observed as Rb gets phosphorylated resulting in no Rb/E2F1-Dp-1 interaction. […] The data presented was a sample experiment where each condition was performed in triplicate and represented mean+SD.
The conditions of the assay were optimized by using different p16 amounts and cell numbers (FIGS. 25A and 25B). Based on the data generated, it was decided that using 0.2×10^6 cells/ml and 10 ng of p16 would be preferable.
To examine the ability of the assay to detect variants in CDKN2A that affect function, known loss of function mutants and unknown COSMIC mutants were created. Wild-type or mutated CDKN2A were prepared in a manner similar to that previously indicated. […] Therefore the p16 activity assay is capable of determining the relative activity level of p16 mutants. The data provided is in Luminescence (RLU) of a single experiment with each condition performed in triplicate and represent average+SD. Summary Table 13 reports p16 mutants tested.
In addition to check functional state of p16 mutants, p16 activity assay can be used to look at p16 inhibition response of different CDK4 and CDK6 mutants. Different response of WT CDK4 and CDK6 and hyperactive mutants of CDK4 (R24A) and CDK6 (R31C) is shown on FIG. 28. […] The p16 activity assay is so sensitive and specific that hyperactive CDK4 and CDK6 mutants can show different response to mutant p16.

[3] = tested on: CDK4; conditions: p16 (CDKN2A) mutants; cited from earlier work
[4] = tested on: Rb/E2F1-Dp-1 complex; conditions: CDK4 mutants, literature ref.; Hyper = hyperactive, KD = kinase dead; cited from earlier work
[5] = tested on: Rb/E2F1-Dp-1 complex; assay: CDK4 mutant activity / drug resistance in NanoBiT assay, stable cell line #11; assay type: cell-based, human; conditions: CDK4 mutants, compared to the WT (being 100%)
Protocol: as §1, §2
To examine the specificity of the assay, particular CDK4 kinase dead mutants were created. Modifications to D158 were made by changing aspartate to nonpolar alanine (D158A) or positively charged arginine (D158R). […] The mutations in CDK4 were created by site-directed mutagenesis. WT or mutated CDK4 along with the CyclinD1 and SB-Rb was co-transfected into the #11 cell line, under the same conditions as previously indicated. […] Kinase dead mutants have the high signal due to inability to phosphorylate Rb.
as §3, §4

[6] = predicted drug resistant CDK6 mutants

CDK6 R220S: CDK6 mutant from COSMIC database
Luc activity (/wt) ([1]; CDK6 mutants, compared to the WT (being 100%)): 271%

CDK6 T107K: predicted drug resistant CDK6 mutant
Luc. activity (/wt) [1, 6]: 95%
Observed drug resist. ([1]; predicted drug resistant CDK6 mutants, Palbociclib/Ribociclib): showed drug resistance; also recorded: Resistant

CDK6 V27A: predicted drug resistant CDK6 mutant
Luc. activity (/wt) [1, 6]: 149%

B1: p16 A20P: p16 (CDKN2A) mutant (protein)
chain: MEPAAGSSMEPSADWLATAPARGRVEEVRALLEAGALPNAPNSYGRRPIQVMMMGSARVAELLLLHGAEPNCADPATLTRPVHDAAREGFLDTLVVLHRAGARLDVRDAWGRLPVDLAEELGHRDVARYLRAAAGGTRGSNHARIDAAEGPSDIPD
signal of p16 mutant (in words) [2]: close to the baseline

B2: p16 G101W: p16 (CDKN2A) mutant (protein)
chain: MEPAAGSSMEPSADWLATAAARGRVEEVRALLEAGALPNAPNSYGRRPIQVMMMGSARVAELLLLHGAEPNCADPATLTRPVHDAAREGFLDTLVVLHRAWARLDVRDAWGRLPVDLAEELGHRDVARYLRAAAGGTRGSNHARIDAAEGPSDIPD
Observed function [2]: Reduced

B3: p16 A148T: p16 (CDKN2A) mutant (protein)
chain: MEPAAGSSMEPSADWLATAAARGRVEEVRALLEAGALPNAPNSYGRRPIQVMMMGSARVAELLLLHGAEPNCADPATLTRPVHDAAREGFLDTLVVLHRAGARLDVRDAWGRLPVDLAEELGHRDVARYLRAAAGGTRGSNHARIDATEGPSDIPD
Observed function [2]: Normal
Literature reported function [3]: Normal

B4: p16 D14G: p16 (CDKN2A) mutant (protein)
chain: MEPAAGSSMEPSAGWLATAAARGRVEEVRALLEAGALPNAPNSYGRRPIQVMMMGSARVAELLLLHGAEPNCADPATLTRPVHDAAREGFLDTLVVLHRAGARLDVRDAWGRLPVDLAEELGHRDVARYLRAAAGGTRGSNHARIDAAEGPSDIPD
Observed function [2]: Normal

B5: p16 P114L: p16 (CDKN2A) mutant (protein)
chain: MEPAAGSSMEPSADWLATAAARGRVEEVRALLEAGALPNAPNSYGRRPIQVMMMGSARVAELLLLHGAEPNCADPATLTRPVHDAAREGFLDTLVVLHRAGARLDVRDAWGRLLVDLAEELGHRDVARYLRAAAGGTRGSNHARIDAAEGPSDIPD
signal of p16 mutant (in words) [2]: close to the baseline

B6: p16 D108N: p16 (CDKN2A) mutant (protein)
chain: MEPAAGSSMEPSADWLATAAARGRVEEVRALLEAGALPNAPNSYGRRPIQVMMMGSARVAELLLLHGAEPNCADPATLTRPVHDAAREGFLDTLVVLHRAGARLDVRNAWGRLPVDLAEELGHRDVARYLRAAAGGTRGSNHARIDAAEGPSDIPD
Observed function [2]: Normal

B7: p16 R144C: p16 (CDKN2A) mutant (protein)
chain: MEPAAGSSMEPSADWLATAAARGRVEEVRALLEAGALPNAPNSYGRRPIQVMMMGSARVAELLLLHGAEPNCADPATLTRPVHDAAREGFLDTLVVLHRAGARLDVRDAWGRLPVDLAEELGHRDVARYLRAAAGGTRGSNHACIDAAEGPSDIPD
Observed function [2]: Normal
Literature reported function [3]: Normal

B8: p16 A36G: p16 (CDKN2A) mutant (protein)
chain: MEPAAGSSMEPSADWLATAAARGRVEEVRALLEAGGLPNAPNSYGRRPIQVMMMGSARVAELLLLHGAEPNCADPATLTRPVHDAAREGFLDTLVVLHRAGARLDVRDAWGRLPVDLAEELGHRDVARYLRAAAGGTRGSNHARIDAAEGPSDIPD
Observed function [2]: Normal

B9: p16 H83Y: p16 (CDKN2A) mutant (protein)
chain: MEPAAGSSMEPSADWLATAAARGRVEEVRALLEAGALPNAPNSYGRRPIQVMMMGSARVAELLLLHGAEPNCADPATLTRPVYDAAREGFLDTLVVLHRAGARLDVRDAWGRLPVDLAEELGHRDVARYLRAAAGGTRGSNHARIDAAEGPSDIPD
signal of p16 mutant (in words) [2]: close to the baseline

B10: p16 S56N: p16 (CDKN2A) mutant (protein)
chain: MEPAAGSSMEPSADWLATAAARGRVEEVRALLEAGALPNAPNSYGRRPIQVMMMGNARVAELLLLHGAEPNCADPATLTRPVHDAAREGFLDTLVVLHRAGARLDVRDAWGRLPVDLAEELGHRDVARYLRAAAGGTRGSNHARIDAAEGPSDIPD
Observed function [2]: Normal

B11: p16 V126D: p16 (CDKN2A) mutant (protein)
chain: MEPAAGSSMEPSADWLATAAARGRVEEVRALLEAGALPNAPNSYGRRPIQVMMMGSARVAELLLLHGAEPNCADPATLTRPVHDAAREGFLDTLVVLHRAGARLDVRDAWGRLPVDLAEELGHRDDARYLRAAAGGTRGSNHARIDAAEGPSDIPD
signal of p16 mutant (in words) [2]: close to the baseline

B12: CDK4 K22A: CDK4 mutant, literature hyperactive (protein, UniProt P11802 2-303, looked up, variant K22A)
Cyclin-dependent kinase 4: ATSRYEPVAEIGVGAYGTVYAARDPHSGHFVALKSVRVPNGGGGGGGLPISTVREVALLRRLEAFEHPNVVRLMDVCATSRTDREIKVTLVFEHVDQDLRTYLDKAPPPGLPAETIKDLMRQFLRGLDFLHANCIVHRDLKPENILVTSGGTVKLADFGLARIYSYQMALTPVVVTLWYRAPEVLLQSTYATPVDMWSVGCIFAEMFRRKPLFCGNSEADQLGKIFDLIGLPPEDDWPRDVSLPRGAFPPRGPRPVQSVVPEMEESGAQLLLEMLTFNPHKRISAFRALQHSYLHKDEGNPE
Reported activity [4]: Hyper
Luc. activity (/wt) [5]: 67.5%
